Source: patent US6159736

Tested on: Tn5 transposase hyperactive mutant EK54/MA56/LP372 (EK45/MA56/LP372 [sic] in example) E54K,M56A,L372P (Escherichia coli (transposon Tn5)?)
Assay: cell_activity
Conditions: 1 µl electroporated into E. coli MG1655, KanR colonies

For “linearized plasmid with mosaic-end kanamycin transposon and donor backbone”, the activity (with Mg2+) was 6900 CFU.
Substance “released transposable element (PvuII cut) with kanamycin resistance cassette flanked by inverted mosaic ends” has an activity (no Mg2+, synaptic complex formed in vitro, with Mg2+ 3.9e3, 10 µl dialyzed without Mg2+ 5.5e5) of 53000 CFU.
“supercoiled plasmid with mosaic-end kanamycin transposon and donor backbone” gave an activity (with Mg2+, none without transposase) of 1600 CFU.
